Assay results: patent US20200308299A1, “ANTI-GPC-1 ANTIBODY” (National University Corporation Kochi University, priority 2017, published 2020)

Columns and labels:
[1] = system: TE14 cell strain; experiment: In vivo antitumor effect of unlabeled anti-GPC1 antibody, TE14 graft in SCID mice; set-up: species or system mouse
Procedure: Specifically, 2.0×10^6 cells of TE14 cell strain were subcutaneously grafted into female SCID mice (6 week old, n=9). When the tumor size reached about 100 mm^3 on about day 10 to 14 after grafting, administration of control mouse IgG2a (sigma, M7769) and anti-GPC1 antibody 01a033 each at 10 mg/kg was started, which were intraperitoneally administered on day 0, day 3, day 7, day 10, day 14, and day 17, with the day starting the administration considered 0 day. The tumor volume was measured on day 0, day 3, day 7, day 10, day 14, day 17, day 21, day 24, day 28, and day 31.

[2] = system: DU145 cells; experiment: ADC assay combining anti-GPC-1 antibody and MMAF binding secondary antibody in DU145 cells; assay type: cell-based
[3] = system: LK2 cells; experiment: In vitro ADC assay, LK2 cells; assay type: cell-based, human; settings: 144 hours; LK2 hardly express GPC1
Procedure: (§1) Preparation of a conjugate of mouse anti-Glypican-1 mAb (01a033), mouse IgG2a (biolegend #400224) as a control, and mc-vc-PAB-MMAF was commissioned to MORADEC. An anticancer agent was conjugated to a cysteine residue via a cleavable linker. The DAR (drug-antibody ratio) was as follows. GPC1-CL-MMAF DAR=3.8, mouse IgG2a-CL-MMAF DAR=4.1.
(§2) (1) The cells were seeded on Thermo Fisher Scientific's 96-well white plate (model no.: 136101) (90 μl cell suspension). RPMI1640+10% FBS+100 U/ml penicillin+100 μg/ml streptomycin was used as the medium. The cells were seeded in 60 wells, and 100 μL of medium was added to 36 wells, and cultured in a 5% CO2 incubator at 37° C. (2) The next day, 10 μL of ADC was added to the cells (total amount: 100 μL). (3) After 144 hours of culture, a CellTiter-Glo™ Luminescence Cell Viability Assay reagent (Promega) was added and mixed at 100 μL/well. (4) Measurements were taken with a plate reader. (5) Analysis was conducted with GraphPad Prism 6.
(§3) The IC50 values were calculated from the following equation (Hossain M M, Hosono-Fukao T, Tang R, Sugaya N, van Kuppevelt T H, Jenniskens G J, Kimata K, Rosen S D, Uchimura K (2010) Direct detection of HSulf-1 and HSulf-2 activities on extracellular heparan sulphate and their inhibition by PI-88. Glycobiology 20(2): 175-186.)
(§4) IC50=10^(Log [A][B]×(50−C)/(D−C)+Log [B]) […]

[4] = system: BxPC3 cells; experiment: In vitro ADC assay, BxPC3 cells; assay type: cell-based, human; settings: BxPC3, 144 hours
Procedure: as §1, §2, §3, §4

[5] = system: ME180 cell strain; experiment: In vivo efficacy test on GPC1 ADC using cervical cancer cell strain ME180 in SCID mice; set-up: species or system mouse
Procedure: Specifically, 1.0×10^6 cells of ME180 cell strain were subcutaneously grafted into female SCID mice. […] The tumor volume and body weight were measured on day 0, day 4, day 8, day 12, day 16, day 20, day 24, day 28, and day 32.
After subcutaneous tumorigenesis of ME180, (1) PBS, (2) control ADC at 10 mg/kg, and (3) GPC1-ADC at 10 mg/kg were administered once into the tail vein. The tumor was extracted after 24 hours. After deparaffinization of a section of a paraffin embedded tissue, the slice was dehydrated with alcohol. Immunohistochemical staining on Phospho-Histon H3 (Ser10) was performed by using an anti-Phospho-Histon H3 (Ser10) antibody (Cell Signaling Technology: #9701) and ChemMate Envision kit HRP 500T (Dako: K5007).

Molecule	ADCC activity ([1]; concluded from the lack of in vivo antitumor effect)	antitumor effect (tumor volume, tumor weight day 31) ([1]; unlabeled antibody 10 mg/kg ip day 0, 3, 7, 10, 14, 17)	activity compared to MIL-38 ([2]; DU145 cells) [fold]	growth suppressing effect against DU145 cells ([2]; primary antibody plus MMAF secondary antibody 2 μg/ml, 3 days)	EC50 values against DU145 cells ([2]; primary antibody plus MMAF secondary antibody, 3 days)	antitumor effect against LK2 cells [3]	effect of suppressing cell growth [4]	antitumor effect (tumor volume, tumor weight day 32) ([5]; 1 mg/kg iv day 0, 4, 8, 12)	antitumor effect (tumor volume, tumor weight day 32) ([5]; 3 mg/kg iv day 0, 4, 8, 12)	antitumor effect (tumor volume, tumor weight day 32) ([5]; 10 mg/kg iv day 0, 4, 8, 12)	tumor volume ([5]; 10 mg/kg iv day 0, 4, 8, 12)	change in the body weight ([5]; any dosage tested (1, 3, 10 mg/kg))	G2/M phase arrest in tumor tissue (Phospho-Histon H3 (Ser10) staining) ([5]; single tail vein dose 10 mg/kg, tumor extracted after 24 hours)
clone 01a033 (antibody) heavy: QVQLKQSGPELVKPGASVKISCKASGYSFTGYYMHWVKQSPEKSLEWIGEINPSTGDTTYNQKFKAKATLTVDKSSSTAYMQLKSLTSEDSAVYYCAREKRDDGVFAYWGQGTLVTVSSAKTTAPSVYPLAPVCGDTTGSSVTLGCLVKGYFPEPVTLTWNSGSLSSGVHTFPAVLQSDLYTLSSSVTVTSSTWPSQSITCNVAHPASSTKVDKKIEPRGPTIKPCPPCKCPAPNLLGGPSVFIFPPKIKDVLMISLSPIVTCVVVDVSEDDPDVQISWFVNNVEVHTAQTQTHREDYNSTLRVVSALPIQHQDWMSGKEFKCKVNNKDLPAPIERTISKPKGSVRAPQVYVLPPPEEEMTKKQVTLTCMVTDFMPEDIYVEWTNNGKTELNYKNTEPVLDSDGSYFMYSKLRVEKKNWVERNSYSCSVVHEGLHNHHTTKSFSRTPGK light: DIVMSQSPKSMSMSVGERVALSCKASENVGTYVSWYQQKPEQSPKLLIYGASNRYTGVPDRFTGSGSATDFTLTISSVQAEDLADYYCGQSYSYPLTFGAGTKLELKRADAAPTVSIFPPSSEQLTSGGASVVCFLNNFYPKDINVKWKIDGSERQNGVLNSWTDQDSKDSTYSMSSTLTLTKDEYERHNSYTCEATHKTSTSPIVKSFNRNEC	does not have ADCC activity	no antitumor effect	37	high growth suppressing effect	excellent EC50 values	–	–	–	–	–	–	–	–
GPC1 ADC (conjugate) heavy: QVQLKQSGPELVKPGASVKISCKASGYSFTGYYMHWVKQSPEKSLEWIGEINPSTGDTTYNQKFKAKATLTVDKSSSTAYMQLKSLTSEDSAVYYCAREKRDDGVFAYWGQGTLVTVSSAKTTAPSVYPLAPVCGDTTGSSVTLGCLVKGYFPEPVTLTWNSGSLSSGVHTFPAVLQSDLYTLSSSVTVTSSTWPSQSITCNVAHPASSTKVDKKIEPRGPTIKPCPPCKCPAPNLLGGPSVFIFPPKIKDVLMISLSPIVTCVVVDVSEDDPDVQISWFVNNVEVHTAQTQTHREDYNSTLRVVSALPIQHQDWMSGKEFKCKVNNKDLPAPIERTISKPKGSVRAPQVYVLPPPEEEMTKKQVTLTCMVTDFMPEDIYVEWTNNGKTELNYKNTEPVLDSDGSYFMYSKLRVEKKNWVERNSYSCSVVHEGLHNHHTTKSFSRTPGK light: DIVMSQSPKSMSMSVGERVALSCKASENVGTYVSWYQQKPEQSPKLLIYGASNRYTGVPDRFTGSGSATDFTLTISSVQAEDLADYYCGQSYSYPLTFGAGTKLELKRADAAPTVSIFPPSSEQLTSGGASVVCFLNNFYPKDINVKWKIDGSERQNGVLNSWTDQDSKDSTYSMSSTLTLTKDEYERHNSYTCEATHKTSTSPIVKSFNRNEC	–	–	–	–	–	hardly exhibited	exhibits an effect of suppressing cell growth	slight antitumor effect	slight antitumor effect	significant antitumor effect	tumor volume was significantly reduced	significant change in the body weight was not observed	resulted in G2/M phase arrest
